Results on two molecules are retold here after paper PMC4751602.

Data set [1] has as its target T1, hnRNP-Q1 RGG box peptide (UniProt O60506-3 406-561).
T1 sequence: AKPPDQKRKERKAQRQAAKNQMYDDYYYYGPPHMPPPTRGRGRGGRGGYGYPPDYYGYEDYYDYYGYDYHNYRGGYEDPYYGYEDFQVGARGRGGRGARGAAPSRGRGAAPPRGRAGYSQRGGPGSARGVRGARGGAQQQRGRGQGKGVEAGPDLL
Put plainly: fluorescence spectroscopy.

Data set [2] addresses T2, GST-hnRNP-Q1 (UniProt O60506-3 1-562).
T2 sequence: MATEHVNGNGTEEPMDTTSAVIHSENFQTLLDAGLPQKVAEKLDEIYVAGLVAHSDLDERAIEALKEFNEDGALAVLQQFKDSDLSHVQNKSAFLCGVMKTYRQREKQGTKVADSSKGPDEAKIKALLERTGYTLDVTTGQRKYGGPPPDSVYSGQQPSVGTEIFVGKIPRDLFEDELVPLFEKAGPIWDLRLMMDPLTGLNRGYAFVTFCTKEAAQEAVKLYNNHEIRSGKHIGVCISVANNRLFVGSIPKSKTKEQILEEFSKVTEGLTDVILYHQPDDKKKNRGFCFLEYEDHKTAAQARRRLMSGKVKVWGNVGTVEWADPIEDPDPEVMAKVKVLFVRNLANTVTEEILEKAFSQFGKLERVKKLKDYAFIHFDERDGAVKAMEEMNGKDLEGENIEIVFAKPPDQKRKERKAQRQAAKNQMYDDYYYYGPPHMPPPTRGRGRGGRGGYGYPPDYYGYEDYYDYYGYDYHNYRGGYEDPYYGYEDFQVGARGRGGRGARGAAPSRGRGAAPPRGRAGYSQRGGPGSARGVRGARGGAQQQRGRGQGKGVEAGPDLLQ
The data set can be described thus: biotin pull-down, GST immunoblot.

B1: 2AP Gap-43 5'GQ RNA (structured_RNA)
RNA: GGGAGGGAGGGAGGGAGAGC
modifications: 2-aminopurine replaces A4
In data set [1], B1 registered a Kd of 131 ± 14 nM.

B2: Gap-43 5'GQ (5' biotin) (structured_RNA)
RNA: GGGAGGGAGGGAGGGA
For the molecule B2, the binding result in data set [2] is “binds”.
